Measurements reported in publication PMC10397247.
One block for each binder: values may come before it.

Key:
4H780-bH = biological target: T1, 4H780-bH; test: two-hybrid library CCNG1;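 further: natural log of median RNA to DNA barcode read ratio; higher means stronger binding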
T1 chain: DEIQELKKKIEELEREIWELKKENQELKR

4H754-bH = biological target: T2, 4H754-bH; test: two-hybrid library CCNG1;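 further: natural log of median RNA to DNA barcode read ratio; higher means stronger binding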
T2 chain: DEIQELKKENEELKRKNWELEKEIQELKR

4H797-bH = biological target: T3, 4H797-bH; test: two-hybrid library CCNG1;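 further: natural log of median RNA to DNA barcode read ratio; higher means stronger binding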
T3 chain: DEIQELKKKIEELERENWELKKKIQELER

4H855-bH = biological target: T4, 4H855-bH; test: two-hybrid library CCNG1;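 further: natural log of median RNA to DNA barcode read ratio; higher means stronger binding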
T4 chain: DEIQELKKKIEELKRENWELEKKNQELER

4H953-bH = biological target: T5, 4H953-bH; test: two-hybrid library CCNG1
T5 chain: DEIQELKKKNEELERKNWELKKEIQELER

4H968-bH = biological target: T6, 4H968-bH; test: two-hybrid library CCNG1
T6 chain: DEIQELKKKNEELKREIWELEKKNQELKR

4H683-bH = biological target: T7, 4H683-bH; test: two-hybrid library CCNG1
T7 chain: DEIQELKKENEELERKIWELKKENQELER

4H949-bH = biological target: T8, 4H949-bH; test: two-hybrid library CCNG1
T8 chain: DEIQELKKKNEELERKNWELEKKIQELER

4H918-bH = biological target: T9, 4H918-bH; test: two-hybrid library CCNG1
T9 chain: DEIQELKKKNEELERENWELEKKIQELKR

4H477-bA = biological target: T10, 4H477-bA; test: two-hybrid library CCNG1
T10 chain: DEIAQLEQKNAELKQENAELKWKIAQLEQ

4H741-bA = biological target: T11, 4H741-bA; test: two-hybrid library CCNG1
T11 chain: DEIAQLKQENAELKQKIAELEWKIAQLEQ

4H492-bA = biological target: T12, 4H492-bA; test: two-hybrid library CCNG1
T12 chain: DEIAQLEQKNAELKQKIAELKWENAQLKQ

4H72-bN = biological target: T13, 4H72-bN; test: two-hybrid library CCNG1
T13 chain: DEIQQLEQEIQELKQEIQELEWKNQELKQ

GCN2_T = test: two-hybrid library CCmax
O14-AA = biological target: T14, O14-AA; test: two-hybrid library CCmax; conditions: mean of both orientations
T14 chain: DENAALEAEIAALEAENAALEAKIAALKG

4H_BCR = biological target: T15, 4H_BCR; test: two-hybrid library CCmax; conditions: mean of both orientations
T15 chain: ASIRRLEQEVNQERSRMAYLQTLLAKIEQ

4H451-AA = biological target: T16, 4H451-AA; test: two-hybrid library CCmax; conditions: mean of both orientations
T16 chain: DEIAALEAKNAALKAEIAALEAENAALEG

4H510-AA = biological target: T17, 4H510-AA; test: two-hybrid library CCmax; conditions: mean of both orientations
T17 chain: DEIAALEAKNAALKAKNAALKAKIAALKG

O13-AA = biological target: T18, O13-AA; test: two-hybrid library CCmax; conditions: mean of both orientations
T18 chain: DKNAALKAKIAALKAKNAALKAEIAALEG

4H43-AA = biological target: T19, 4H43-AA; test: two-hybrid library CCmax
T19 chain: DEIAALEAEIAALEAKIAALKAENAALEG

4H_APH = biological target: T20, 4H_APH; test: two-hybrid library CCmax; conditions: mean of both orientations
T20 chain: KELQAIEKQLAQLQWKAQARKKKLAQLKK

O11-AA = biological target: T21, O11-AA; test: two-hybrid library CCmax; conditions: mean of both orientations
T21 chain: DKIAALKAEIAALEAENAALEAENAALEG

4H3666-AA = biological target: T22, 4H3666-AA; test: two-hybrid library CCmax; conditions: mean of both orientations
T22 chain: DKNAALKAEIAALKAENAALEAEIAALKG

4H478-AA = biological target: T23, 4H478-AA; test: two-hybrid library CCmax; conditions: mean of both orientations
T23 chain: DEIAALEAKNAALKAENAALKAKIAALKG

4H3939-AA = biological target: T24, 4H3939-AA; test: two-hybrid library CCmax; conditions: mean of both orientations
T24 chain: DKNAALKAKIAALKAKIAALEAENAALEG

4H3628-AA = biological target: T25, 4H3628-AA; test: two-hybrid library CCmax; conditions: mean of both orientations
T25 chain: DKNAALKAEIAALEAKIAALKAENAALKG

4H675-AA = biological target: T26, 4H675-AA; test: two-hybrid library CCmax; conditions: mean of both orientations
T26 chain: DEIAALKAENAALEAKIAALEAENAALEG

4H391-AA = biological target: T27, 4H391-AA; test: two-hybrid library CCmax; conditions: mean of both orientations
T27 chain: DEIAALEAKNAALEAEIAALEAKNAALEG

4H3446-AA = biological target: T28, 4H3446-AA; test: two-hybrid library CCmax; conditions: mean of both orientations
T28 chain: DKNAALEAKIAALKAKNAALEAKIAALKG

4H3920-AA = biological target: T29, 4H3920-AA; test: two-hybrid library CCmax; conditions: mean of both orientations
T29 chain: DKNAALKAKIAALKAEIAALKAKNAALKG

4H3417-AA = biological target: T30, 4H3417-AA; test: two-hybrid library CCmax; conditions: mean of both orientations
T30 chain: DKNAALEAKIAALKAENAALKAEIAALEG

4H3102-AA = biological target: T31, 4H3102-AA; test: two-hybrid library CCmax; conditions: mean of both orientations
T31 chain: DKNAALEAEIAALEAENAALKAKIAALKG

4H3066-AA = biological target: T32, 4H3066-AA; test: two-hybrid library CCmax
T32 chain: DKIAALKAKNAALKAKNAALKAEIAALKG

4H656-AA = biological target: T33, 4H656-AA; test: two-hybrid library CCmax; conditions: mean of both orientations
T33 chain: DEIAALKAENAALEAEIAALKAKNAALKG

4H428-AA = biological target: T34, 4H428-AA; test: two-hybrid library CCmax; conditions: mean of both orientations
T34 chain: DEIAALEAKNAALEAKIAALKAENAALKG

4H3591-AA = biological target: T35, 4H3591-AA; test: two-hybrid library CCmax; conditions: mean of both orientations
T35 chain: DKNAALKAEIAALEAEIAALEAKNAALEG

4H3121-AA = biological target: T36, 4H3121-AA; test: two-hybrid library CCmax; conditions: mean of both orientations
T36 chain: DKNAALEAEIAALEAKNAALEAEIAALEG

4H497-AA = biological target: T37, 4H497-AA; test: two-hybrid library CCmax; conditions: mean of both orientations
T37 chain: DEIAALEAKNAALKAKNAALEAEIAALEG

4H3709-AA = biological target: T38, 4H3709-AA; test: two-hybrid library CCmax; conditions: mean of both orientations
T38 chain: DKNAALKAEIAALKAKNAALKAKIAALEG

4H971-AA = biological target: T39, 4H971-AA; test: two-hybrid library CCmax; conditions: mean of both orientations
T39 chain: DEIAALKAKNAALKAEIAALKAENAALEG

4H481-AA = biological target: T40, 4H481-AA; test: two-hybrid library CCmax; conditions: mean of both orientations
T40 chain: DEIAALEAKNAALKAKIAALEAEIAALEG

4H3922-AA = biological target: T41, 4H3922-AA; test: two-hybrid library CCmax; conditions: mean of both orientations
T41 chain: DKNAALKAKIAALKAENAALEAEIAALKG

4H369-AA = biological target: T42, 4H369-AA; test: two-hybrid library CCmax
T42 chain: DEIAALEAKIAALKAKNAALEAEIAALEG

4H55-AA = biological target: T43, 4H55-AA; test: two-hybrid library CCmax; conditions: mean of both orientations
T43 chain: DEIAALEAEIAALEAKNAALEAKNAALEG

4H4033-AA = biological target: T44, 4H4033-AA; test: two-hybrid library CCmax; conditions: mean of both orientations
T44 chain: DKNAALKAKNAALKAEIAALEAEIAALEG

4H662-AA = biological target: T45, 4H662-AA; test: two-hybrid library CCmax; conditions: mean of both orientations
T45 chain: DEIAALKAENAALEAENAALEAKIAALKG

4H816-AA = biological target: T46, 4H816-AA; test: two-hybrid library CCmax; conditions: mean of both orientations
T46 chain: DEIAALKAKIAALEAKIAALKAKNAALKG

4H87-AA = biological target: T47, 4H87-AA; test: two-hybrid library CCmax; conditions: mean of both orientations
T47 chain: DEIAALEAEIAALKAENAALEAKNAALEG

4H390-AA = biological target: T48, 4H390-AA; test: two-hybrid library CCmax
T48 chain: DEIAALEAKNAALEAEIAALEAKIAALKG

4H775-AA = biological target: T49, 4H775-AA; test: two-hybrid library CCmax; conditions: mean of both orientations
T49 chain: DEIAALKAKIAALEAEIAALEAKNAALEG

4H3940-AA = biological target: T50, 4H3940-AA; test: two-hybrid library CCmax; conditions: mean of both orientations
T50 chain: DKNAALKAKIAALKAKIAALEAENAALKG

Binder: DEIAQLEQKNAELKQENAELKWKIAQLEQ [4H477-bA]
interaction score (4H477-bA): -0.249
interaction score (4H741-bA): -1.37
interaction score (4H492-bA): -0.749
interaction score (4H72-bN): -3.66

Binder: DEIAALEAEIAALEAKIAALKAENAALEG [4H43-AA]
interaction score (GCN2_T): -1.41
interaction score (O14-AA): -0.845
interaction score (4H_BCR): -1.44
interaction score (4H451-AA): -1.31
interaction score (4H510-AA): -0.823
interaction score (O13-AA): 0.246
interaction score (4H43-AA): 1.54
interaction score (4H_APH): -0.887
interaction score (O11-AA): -0.943

Binder: DKIAALKAKNAALKAKNAALKAEIAALKG [4H3066-AA]
interaction score (4H3666-AA): 0.0105
interaction score (4H478-AA): 1.25
interaction score (4H3939-AA): -2.16
interaction score (4H3628-AA): -1.85
interaction score (4H675-AA): -1.19
interaction score (4H391-AA): -1.09
interaction score (4H3446-AA): -1.7
interaction score (4H3920-AA): -1.87
interaction score (4H3417-AA): -2.18
interaction score (4H3102-AA): 0.0998
interaction score (4H3066-AA): -0.506
interaction score (4H656-AA): 0.231
interaction score (4H428-AA): -1.26
interaction score (4H3591-AA): -1.59
interaction score (4H3121-AA): -0.941
interaction score (4H497-AA): -0.971
interaction score (4H3709-AA): -1.94
interaction score (4H971-AA): -1.81

Binder: DEIAALEAKNAALEAEIAALEAKIAALKG [4H390-AA]
interaction score (4H816-AA): 0.183
interaction score (4H87-AA): -1.41
interaction score (4H510-AA): 1.57
interaction score (4H390-AA): 2.23
interaction score (4H775-AA): -0.316
interaction score (4H3940-AA): -0.115

Other lines, results leading:

interaction score (4H780-bH): -0.661
interaction score (4H754-bH): -0.187
interaction score (4H797-bH): -0.161
interaction score (4H855-bH): -0.174
interaction score (4H953-bH): -1.23
interaction score (4H968-bH): 1.12
interaction score (4H683-bH): 0.562
interaction score (4H949-bH): -0.385
interaction score (4H918-bH): -1.01
Binder: DEIQELKKENEELERKIWELKKENQELER [4H683-bH]

interaction score (4H481-AA): -0.912
interaction score (4H3922-AA): 0.000191
interaction score (4H369-AA): -0.526
interaction score (4H55-AA): -0.33
interaction score (4H4033-AA): -0.678
interaction score (4H662-AA): 1.3
Binder: DEIAALEAKIAALKAKNAALEAEIAALEG [4H369-AA]
